{"source": "patent US20260184814A1", "about": "(priority 2022, published 2026)", "key": {"[1]": {"test_system": "BNA7 from B/Perth/211/2011"}, "[2]": {"test_system": "pseudovirus-derived neuraminidase", "format": "biochemical, influenza A virus"}, "IAV and IBV NA antigens": {"target": "IAV and IBV NA antigens", "format": "binding, influenza A virus, influenza B virus"}, "N9 from A/Anhui/1/2013": {"test_system": "N9 from A/Anhui/1/2013", "format": "binding"}, "[3]": {"target": "group I (H1N1) IAV, group II (H3N2) IAV, and IBV NAs", "format": "biochemical, influenza A virus, influenza B virus"}, "N1 and N2 neuraminidases": {"target": "N1 and N2 neuraminidases", "format": "biochemical, influenza A virus"}, "FIG. 50B": {"assay": "FIG. 50B", "parameters": "CLEARANCE (μg/ml): unit not given here"}}}
{"substance": "FNI9", "values": [{"measurement": "IC50", "setting": "[1]", "value": 23.209, "unit": "mg/mL"}]}
{"substance": "FNI9-v8.1: FNI9 variant with S28T in VH; VH SEQ ID NO:54, VL SEQ ID NO:8", "values": [{"measurement": "IC50 for inhibiting sialidase activity in an ELLA assay", "setting": "[2]", "value": "lower IC50"}, {"measurement": "affinity by surface plasmon resonance", "setting": "IAV and IBV NA antigens", "value": "higher affinity"}, {"measurement": "binding to N9_A_Anhui_2013, assessed by flow cytometry", "setting": "N9 from A/Anhui/1/2013", "value": "binds more strongly"}, {"measurement": "in vitro inhibition of sialidase activity (reported as IC50)", "setting": "[3]", "value": "improved"}, {"measurement": "IC50 for inhibiting sialidase activity in a MUNANA assay", "setting": "N1 and N2 neuraminidases", "value": "lower IC50"}]}
{"substance": "FNI9-LS", "values": [{"measurement": "AUC", "setting": "FIG. 50B", "value": "527.46 ± 75.92", "unit": "µg·days/mL"}, {"measurement": "CLEARANCE (μg/ml)", "setting": "FIG. 50B", "value": "1.47 ± 0.19"}, {"measurement": "HALF-LIFE", "setting": "FIG. 50B", "value": "13.37 ± 1.52", "unit": "days"}, {"measurement": "AUCLAST", "setting": "FIG. 32", "value": 254.583, "unit": "µg·days/mL"}, {"measurement": "CLss", "setting": "FIG. 32", "value": 1.944, "unit": "mL/day"}, {"measurement": "HALF-LIFE", "setting": "FIG. 32", "value": 14.198, "unit": "days"}, {"measurement": "LAMBDA_Z", "setting": "FIG. 32", "value": 0.05, "unit": "day⁻¹"}, {"measurement": "Vz", "setting": "FIG. 32", "value": 40.281, "unit": "mL"}]}
